Values quoted from earlier work as cited in paper PMC6721559.
pKd: −log10 of the molar value.

Molecular target: Ubc9 (Homo sapiens) (UniProt P63279)
UniProt P63279, sequence (P63279 2-158): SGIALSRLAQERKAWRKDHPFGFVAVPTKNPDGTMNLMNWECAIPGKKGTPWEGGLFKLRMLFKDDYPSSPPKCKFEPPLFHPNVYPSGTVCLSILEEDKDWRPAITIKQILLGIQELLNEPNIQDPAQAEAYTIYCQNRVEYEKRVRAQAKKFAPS

SUMO (from UniProt P63165)
pKd: 7.09
